Reference: patent publication US20220235136A1 (YALE UNIVERSITY, published 2022)

Legend:
[1] = molecular target: T1, mouse CD93 on transfected HEK293T cells (mouse, UniProt O89103 23-644); assay: flow cytometry, mouse IGFBP7-Ig on mouse CD93-transduced or control HEK293T cells
T1 construct: whole, on cells; also called mCD93
T1 sequence (looked up): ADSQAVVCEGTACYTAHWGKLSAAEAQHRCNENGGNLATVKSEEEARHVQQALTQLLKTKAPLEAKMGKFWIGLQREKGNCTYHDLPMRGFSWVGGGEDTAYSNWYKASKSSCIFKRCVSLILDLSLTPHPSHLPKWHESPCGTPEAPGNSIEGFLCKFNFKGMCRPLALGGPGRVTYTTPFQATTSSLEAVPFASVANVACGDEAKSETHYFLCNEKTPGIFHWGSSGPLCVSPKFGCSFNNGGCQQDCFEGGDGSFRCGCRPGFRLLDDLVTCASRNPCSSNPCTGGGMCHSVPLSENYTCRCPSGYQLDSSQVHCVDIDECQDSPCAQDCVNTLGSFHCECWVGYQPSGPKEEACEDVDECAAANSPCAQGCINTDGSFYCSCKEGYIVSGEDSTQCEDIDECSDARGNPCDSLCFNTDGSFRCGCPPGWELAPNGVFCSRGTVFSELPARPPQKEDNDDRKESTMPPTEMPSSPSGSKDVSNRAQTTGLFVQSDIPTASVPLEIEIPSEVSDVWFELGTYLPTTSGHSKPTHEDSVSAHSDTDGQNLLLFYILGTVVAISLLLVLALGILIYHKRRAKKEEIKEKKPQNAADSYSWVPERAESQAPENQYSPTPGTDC

[2] = molecular target: T2, recombinant human CD93 protein (R&D Systems) (human, UniProt Q9NPY3 24-580); assay: microscale thermophoresis: 10 nM labelled IGFBP7, CD93 titrated from 5.9 uM to 180 pM (FIG. 4E)
T2 construct: Bought soluble protein
T2 sequence: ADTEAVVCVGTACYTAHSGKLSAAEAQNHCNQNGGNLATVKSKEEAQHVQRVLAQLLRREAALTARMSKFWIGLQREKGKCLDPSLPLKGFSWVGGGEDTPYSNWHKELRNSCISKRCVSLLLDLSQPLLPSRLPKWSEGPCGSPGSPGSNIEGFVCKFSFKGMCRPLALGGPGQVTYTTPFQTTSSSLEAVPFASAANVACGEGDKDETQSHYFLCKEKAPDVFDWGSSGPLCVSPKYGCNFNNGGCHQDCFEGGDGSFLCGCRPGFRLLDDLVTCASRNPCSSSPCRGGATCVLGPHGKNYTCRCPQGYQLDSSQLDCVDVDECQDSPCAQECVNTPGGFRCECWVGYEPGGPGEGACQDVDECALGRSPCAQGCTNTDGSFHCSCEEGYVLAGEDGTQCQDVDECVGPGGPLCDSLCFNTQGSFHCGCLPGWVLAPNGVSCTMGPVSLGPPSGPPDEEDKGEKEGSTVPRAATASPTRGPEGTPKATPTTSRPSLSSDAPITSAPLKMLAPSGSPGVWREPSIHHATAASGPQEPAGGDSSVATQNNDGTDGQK

B1: Mouse IGFBP7 (Fc-tag), Sino Biological (Fc fusion, UniProt Q61581 26-281, looked up)
chain: SSSDACGPCVPASCPALPRLGCPLGETRDACGCCPVCARGEGEPCGGGAAGRGHCAPGMECVKSRKRRKGKAGAAAGGPATLAVCVCKSRYPVCGSNGITYPSGCQLRAASLRAESRGEKAITQVSKGTCEQGPSIVTPPKDIWNVTGAKVFLSCEVIGIPTPVLIWNKVKRDHSGVQRTELLPGDRENLAIQTRGGPEKHEVTGWVLVSPLSKEDAGEYECHASNSQGQASAAAKITVVDALHEIPLKKGEGAQL
notes: also called mouse IGFBP7-Ig; not shown: Fc tag
binding result [1]: binds

B2: IGFBP7 protein (R&D Systems), labelled with a His-Tag Labeling Kit for MST (ligand)
chain: SSSDTCGPCEPASCPPLPPLGCLLGETRDACGCCPMCARGEGEPCGGGGAGRGYCAPGMECVKSRKRRKGKAGAAAGGPGVSGVCVCKSRYPVCGSDGTTYPSGCQLRAASQRAESRGEKAITQVSKGTCEQGPSIVTPPKDIWNVTGAQVYLSCEVIGIPTPVLIWNKVKRGHYGVQRTELLPGDRDNLAIQTRGGPEKHEVTGWVLVSPLSKEDAGEYECHASNSQGQASASAKITVVDALHEIPVKKGEGAEL
modifications: RED-tris-NTA fluorescent dye bound to the His tag
notes: Bought; also called human IGFBP7; not shown: His tag implied by the His-Tag Labeling Kit
Kd [2]: 53.1 nM
